According to the DeepSol protein solubility set:

test: soluble on expression in E. coli; label from the status in PepcDB or PDB records

| Sequence | soluble on expression in E. coli |
| --- | --- |
| MCAVLRQPKCVKLRALHSACKFGVAARSCQELLRKGCVRFQLPMPGSRLCLYEDGTEVTDDCFPGLPNDAELLLLTAGETWHGYVSDITRFLSVFNEPHAGVIQAARQQLSDEQAPLRQKLLADLLHHVSQNITAETREQDPSWFEGLESRFRNKSGYLRYSCESRIRGYLREVSAYTSMVDEAAQEEYLRVLGSMCQKLKSVQYNGSYFDRGAEASSRLCTPEGWFSCQGPFDLESCLSKHSINPYGNRESRILFSTWNLDHIIEKKRTVVPTLAEAIQDGREVNWEYFYSLLFTAENLKLVHIACHKKTTHKLECDRSRIYRPQTGS | soluble |
| MCDIGNRQAYQRAQLDALLGRVRLQANQMEWRPGIYVGEGTTIASSAQLEPPLWIGQHCYIGEEVQLKAGTVIGDESRIEAGACLDRAVVWNRVQIGQRSHLEGCVLEHHHHHH | not soluble |
| MCEFKDFRRNIPCFKEYDENSFIGKWYDDGVWDDEEYWKLENDLIEVRKKYPYPMDIPRDIVIGIGTIIDFLMVQNWKLFEIKASTWLPKSVKINERYERFRVMLRYIFTDLDVEDWKFFYFPIQHSKGRLRRKV | not soluble |
| MCINLQKMCKKCAKMCKICAKVCKKCAKNVQKKCKKCGKMCKKCAKKCLKKSKFSDPRNPKMLPTSLLVCSTGIPIECSAELLSKFKTRRI | soluble |
| MCLLTFAYQTNKRFPFVFAANRDEYYDRPTLFAHEWKEDPNVIGGRDLKKGGTWLGFTKEGKIAALTNVRDSFKHSGIPFQSRGFIVQDYLTSNTSAQLFMERLIQTADEFDGYNLVFGSYHDLYYYTNRMEKGEKLKPGYYMLSNGQMNSHWPKAVKVRTHLQSVLEREQDIETIIKKLLAIMQDEERFPDEQLPDTGVGIEWERILSPIFINGKTYGTRATTVIICTDEGESFFLEWNYGPMGIFLEKREFHIQLPSSYLNMKKDYELEHHHHHH | not soluble |
| MCMAQRLNVNPTRMELSKLKKRLATATRGHKLLKDKQDELMRQFINLIKYNNQLRDEVEKELGSSLKDFVMARAVMSSEFLEEAIAYPKEEIEVEVGNKNIMSVNVPIMNFKRKLEGDEGSIYPYGFMNTSAELDDAISKLYGILPKLLELAEVEKSGQLMADEIEKTRRRVNALEYMTIPQLKETIRYIRMKLDENERSALTRLMKVKSMIEQRGLEHHHHHH | not soluble |
| MCMASKVLNKVMGIIGLNDEDFDEYEDEVMEEKAIARENSYDYDEKLNDKNSSNSNNKVVNIHTASSVKVVIVKPKDYDEATQIDDLKNRKIVVVNVTDLEPKTAQRLLDFMGGASYVLNGELLEIDKGVYLLSPSNVDISRDLKNDLASKSIFNWSKLEHHHHHH | not soluble |
| MCMDRIEKLIKKVSKPARLSVERCRLYTESMKQTEGEPMIIRQAKALKHVLENIPIQILDSELIVGTMLPNPPGAIIFPEGVGLRIINELDSLPNRETNRLMVDEEDAKVLREEIAPYWQRKTIEAFAFPLMPDIMQILYTGSVFVLTEIAGISHVAVNYPYLLRRGFRWFLEESERRIRALEESGVYEGEKYSFYQAAKIVSEAVINYGLRYSKLAEELAESEDGERREELLKIAEICRKVPAEKPETFWEAVQFVWLVQSALHQENYEQAISMGRIDQYLYPFFKKDIGEGRINRELAFDILANLWIKTNEIVPAFDSLLEQYFSGQATNQAVTIGGCDIYGNDATNELTYLMLEVTDRLRLRQPNVHVRINKGSPESFLKRLAEAISSGCNNLALFFDDAAVKALKNAEVDDRDALNYTTDGCVEIAPFGNSFTSSDAALINVAKALEYALNEGVDLQFGYEFGAKTEKPKFLEDLLEKLREQVSHIVKLVVRGSNVLSYANAEVKPTPLLSLCVEDCFEKGVDVSRGGARYNFTGIQAVGIADVGDSLVAIEGALNAGYSMDDIVEACRKNFVGYEKLHKLLLQSPKYGNDDDAADKYTKMVLEWYCEEVNRHRNFRGGKFAAGCYPMTTNVGFGFFTSALPSGRKSGEPLNPGVSPSTGMDREGVTAVINSASKLSYENLPNGASLTINLSSDVLGEKGDAVIEALIKSSMELGVMHVQFNILKEDLLRKAQQEPEKYRWLLVRVAGWSAYFVELSRPVQEEVIRRISCRI | soluble |
| MCVGVPMTVVTSDNGTALCERRGEQRRVSTLLIGEVAVGDRVLVFIDNAMRLLEPDEARLIDDALDGLAAAMQGRDFEHLFADLIDREPQLPAFLRNDVVPPHG | not soluble |
| MCVVIFLKFLFSDNGNNQHGTEAAFGRLAQSYRIQDLLFIIVIFFRAIHIMMFHRPPSARPPLNHVDQLKSLQATALGKPGMRSQATEPQPIGNTVSPLEFRIHDMNRRLYIFSSTGVSENDQQQWWDAFSHEFFDDDCKLWFVIGSEPVAFASRERYIINRQFIPKFFRSIFDSGMRELQYVLRGPSRECTLANGSQAYENENVLQITRYDQSSQFEVNTEGKLYVEFAPFDEVMNYRIKAWTLELKRSNEFVYNQNTADYRVEAQNPEQENKPRMGFFKSTFNLMTMLKILDPMQSIMSSAKSAPAITPREVMKRTLFQHHQVRQQNMRQQQLNQQMMIPAPEPEKPKPARKRQRKPAANPRGSKKATAAAAAAAAAATNGVPPTVPTASPANNQQFPPNPMTSQFQQMSYPDVMVVGEPSMMGSEFGENDERTISRVENSQYDPNAMQMQSLGQGPNSSMNINGRNMMNQHHPGMQPPPGQQHMPPHSMGSQMPTSMHNPMHMPPGSMQGHGGMPPMPSTMANQMPPPNLPPHTMSNQMPNSRMPPMQGQMPPSGMPGQMSNPNMMGSGMPPMSMSSQMPGSMSNPMPNQMPGGMQMNQMPPPNYSQYTGGPPPQWPPPNSAMITG | not soluble |
| MDAKVAFSPHSDANGRLDEIGADIDTAQSSVLFSLAFLGQMTRGAIGPALGRALERPEVHVMGIADAEVRAGNLGLNVLTPDNRRRVVRAAALTGNVPPPFLTEPSGLAGVDGNQRGTRMHHKFVVLDFDKPTARVYLGSYNFSNPADDENGENLVVVRDRTVATSYMIEALRMYDHYVFRVASEASDGPARPLEHHHHHH | not soluble |
| MDALFNHKEFIRLSHEGNINYEKLKVPKNTELVNTADQRNSHVYLIIDGFVSISMNPESNSIYTILGKGSFVNYYSLFQGNVDDFLFKTISTCTVYKYTFKDLEYFLSMFPENFGFQFFIMRDLARHAFFKSLSSETSSSDKLELSFINIGKLHGTPYEKDSVILPKEMRTSVIAAYSNLSKSSFYKQLARLKDQGKIWKNDREWVLKNKEVYDYLKAREIDV | not soluble |
| MDASSGAAADPAEGSAPEGAASGGTGAPNGTDPLDAPNDLGNVPGESAGAGAGAASSGASRSAIMAVTAGGSQGPAVSWGEAADSRSSTWETEGRAAGSLARQAVTRSCSGCGRAGRSGSAEVMRCTTVASESPSKGPRPQAAKTSTEPRENTSLGGPRSVAPRACSGDMKPGVPITEPAAVSAVASTARAMPKSMIRGPSAARITLPGFRSRCTSPQEWMAARPSASPAPSRSTVCSGSGPCASTASCSDGPGT | not soluble |
| MDDATNKKRKVFVSTILTFWNTDRRDFPWRHTRDPYVILITEILLRRTTAGHVKKIYDKFFVKYKCFEDILKTPKSEIAKDIKEIGLSNQRAEQLKELARVVINDYGGRVPRNRKAILDLPGVGKYTCAAVMCLAFGKKAAMVDANFVRVINRYFGGSYENLNYNHKALWELAETLVPGGKCRDFNLGLMDFSAIICAPRKPKCEKCGMSKLCSYYEKCST | soluble |
| MDDILSAALAESGLDFLCQQSSPTPSTSGSIHDDAGQSFSNNTHTPSVSQFFDETSNDSHSSSAYYTPMATPFVSTEDGGVPTSFFGMDEEDGGCTIMTTAGTSGSNNIDGIEDAGGGMYYPHVKVIPRKHTAPTVNQSEPSTPTVTIVPKKEDPLFETNTADSPTPSGDTSTTASYEGNDGLEDQETTSDRQNPMFVQTARSTDFATKKNQMAEQAHFLRFSVFWQKSGRLDTPSTSATVSPHITSSLTQRSHTSSPASSASEGTVVPPRKKGLPITTGSIVKRTVQTKDGLQTQYLKAFVNENGEKIYKLLSPVAASAVARGTLPPGMGRGGSTIGRGGTMVNKNGERLMVVKNHVGPNGQMLVKRMVSPAGTRIVANGGQGRGQPIYRGT | not soluble |
| MDDWKCYDFEKIKRFEKCENPATSCVKKFVHPTLPNDIPISINLQWSPWSECNDRTQTRTGQCFIRLERQLDDSDGLPENWSWLRKLNTMEKHLAFRDGVPLFNGLLASWLYEVESLESCLDTELGPKSKLSGYDNFFGNVLTSLFSNKTISGIKMSDNAFKYCIRTKTLDETNDALIGTYTEDKRTC | not soluble |
